Where no end group is shown, it is not given here.
B1: Phage-2850 (peptide)
peptide: VNIRCEPAWMCMGF
modifications: cysteine pairing not given here; also: fused to phage pIII, linker not given here
notes: Clonal phage of the Peptide-180 library; not shown: pIII filament protein of the display bacteriophage
B2: Phage-2852 (peptide)
peptide: VMPLCKPAWMCGGF
modifications: cysteine pairing not given here; also: fused to pIII of display bacteriophage, linker and sequence not given here
notes: as for B1
B3: Phage-2863 (peptide)
peptide: FNVMCRPAWMCDFL
modifications: cysteine pairing not given here; also: fused to pIII of display bacteriophage, linker and sequence not given here
notes: as for B1
B4: Phage-2854 (peptide)
peptide: VHIMCKPAWMCLGF
modifications: cysteine pairing not given here; also: fused to pIII of display bacteriophage, linker and sequence not given here
notes: Clonal phage of the Peptide-180 library; the cell for position 10 (c11) is missing in the printed row; not shown: pIII filament protein of the display bacteriophage
B5: Phage-2862 (peptide)
peptide: TGAYCVPQWMCSGF
modifications: cysteine pairing not given here; also: fused to phage pIII, linker not given here
notes: as for B1
B6: Phage-2856 (peptide)
peptide: VQRMCEPSWMCFGF
modifications: cysteine pairing not given here; also: fused to pIII of display bacteriophage, linker and sequence not given here
notes: as for B1
B7: Phage-2860 (peptide)
peptide: EWILCKPAWMCDGL
modifications: cysteine pairing not given here; also: fused to pIII of display bacteriophage, linker and sequence not given here
notes: as for B1
B8: Phage-2859 (peptide)
peptide: WEFVCKPEWMCTGF
modifications: cysteine pairing not given here; also: fused to phage pIII, linker not given here
notes: as for B1
B9: Phage-2861 (peptide)
peptide: WDRLCIPAWMCSGF
modifications: cysteine pairing not given here; also: fused to pIII of display bacteriophage, linker and sequence not given here
notes: as for B1
B10: Phage-2853 (peptide)
peptide: MLPLCVPAWMCSGF
modifications: cysteine pairing not given here; also: fused to pIII of display bacteriophage, linker and sequence not given here
notes: as for B1
B11: Phage-2851 (peptide)
peptide: DMRLCVPEWMCLGL
modifications: cysteine pairing not given here; also: displayed on phage as fusion to pIII, linker and sequence not given here
notes: as for B1
B12: Phage-2855 (peptide)
peptide: WEMKCIPEWMCRGF
modifications: cysteine pairing not given here; also: fused to pIII of display bacteriophage, linker and sequence not given here
notes: as for B1
B13: Phage-2857 (peptide)
peptide: LERACVPSWMCTGF
modifications: cysteine pairing not given here; also: fused to pIII of display bacteriophage, linker and sequence not given here
notes: as for B1
B14: Phage-2858 (peptide)
peptide: TQAMCKPAWMCQGF
modifications: cysteine pairing not given here; also: fused to pIII of display bacteriophage, linker and sequence not given here
notes: as for B1
B15: Phage-2676 (peptide)
peptide: IAKWCTPPWMCADN
modifications: cysteine pairing not given here; also: displayed on bacteriophage as fusion to pIII
B16: Phage-2678 (peptide)
peptide: NVIRCEPMWMCYPS
modifications: cysteine pairing not given here; also: displayed on bacteriophage as fusion to pIII

Assays:
PSMA Fab [1] = biological target: T1, PSMA Fab; test: clonal phage ELISA; biotinylated PSMA Fab on neutravidin plate, anti-M13 HRP detection
T1 construct: also called Anti-PSMA Fab; 006 PSMA Fab
Procedure: (§1) Clonal phage were harvested as crude supernatants and screened via standard ELISAs. […] Prior to the addition of clonal phage. wells were incubated with blocking buffer and PSMA antigen or blocking buffer alone. Without washing or aspirating, clonal phage supernatants were then added to the wells and incubated for a short time. Wells were then washed followed by detection of bound phage using a horse radish conjugated anti-M13 antibody.

PSMA Fab [2] = biological target: T1, PSMA Fab; test: clonal phage ELISA on captured PSMA Fab; wells pre-incubated with PSMA antigen as competitor
Procedure: as §1

PSMA Fab [3] = biological target: T2, PSMA Fab; test: clonal phage ELISA on biotinylated PSMA Fab captured on neutravidin plates, anti-M13 HRP detection;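 also: crude clonal phage supernatants tested, before phage were added, wells were pretreated with PSMA antigen in blocking buffer or with blocking buffer only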
T2 construct: Biotinylated and captured on neutravidin coated plates in the phage ELISA; also called Anti-PSMA Fab; 006 PSMA Fab
Procedure: as §1

PSMA Fab [4] = biological target: T2, PSMA Fab; test: clonal phage ELISA on captured PSMA Fab pre-incubated with PSMA antigen as competitor, anti-M13 HRP detection;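 also: crude clonal phage supernatants tested by ELISA, wells first treated with blocking buffer plus PSMA antigen, bound phage read out via HRP-linked anti-M13 antibody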
Procedure: as §1

PSMA Fab [5] = biological target: T3, PSMA Fab (biotinylated (site not stated)); test: clonal phage ELISA; biotinylated PSMA Fab on neutravidin plate, wells pre-incubated with PSMA antigen as competitor, anti-M13-HRP detection
T3 construct: also called Anti-PSMA Fab; 006 PSMA Fab

PSMA Fab [6] = biological target: T3, PSMA Fab; test: clonal phage ELISA; biotinylated PSMA Fab on neutravidin plate, blocking buffer alone, anti-M13-HRP detection;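 also: crude clonal phage supernatants added without washing to wells preincubated with PSMA antigen or with blocking buffer alone, briefly incubated, then washed before bound phage detection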
Procedure: as §1

| Binder | Phage binding ELISA signal, Anti-PSMA Fab (PSMA Fab [1]) | Phage binding ELISA signal (Anti-PSMA Fab, with competitor) (PSMA Fab [2]) | Phage binding ELISA signal, Anti-PSMA Fab (PSMA Fab [5]) | Phage binding ELISA signal, Anti-PSMA Fab (PSMA Fab [6]) | also measured |
| --- | --- | --- | --- | --- | --- |
| B1 | 2.46 | 0.108 |  |  |  |
| IETWCVPRWMCEGF [Phage-2864] |  |  |  |  | Phage binding ELISA signal, Anti-PSMA Fab (PSMA Fab [3]): 2.42; Phage binding ELISA signal, Anti-PSMA Fab with PSMA antigen (PSMA Fab [4]): 0.234 |
| B2 | 2.46 | 0.134 |  |  |  |
| B3 | 2.42 | 0.158 |  |  |  |
| TSPACVPSWMCVGF [Phage-2866] |  |  |  |  | Phage binding ELISA signal, Anti-PSMA Fab (PSMA Fab [3]): 2.4; Phage binding ELISA signal, Anti-PSMA Fab with PSMA antigen (PSMA Fab [4]): 0.071 |
| B4 | 2.44 | 0.246 |  |  |  |
| SGNWCTPSWMCTGF [Phage-2677] |  |  | 0.062 | 0.874 |  |
| WPQLCVPMWMCAGL [Phage-2869] |  |  |  |  | Phage binding ELISA signal, Anti-PSMA Fab (PSMA Fab [3]): 2.4; Phage binding ELISA signal, Anti-PSMA Fab with PSMA antigen (PSMA Fab [4]): 0.148 |
| EEKWCIPYWMCEAV [Phage-2669] |  |  | 0.0691 | 0.885 |  |
| EHKWCIPDWMCWED [Phage-2675] |  |  | 0.0562 | 0.876 |  |
| B5 | 2.43 | 0.112 |  |  |  |
| B6 | 2.44 | 0.0783 |  |  |  |
| IDILCRPLWMCNGM [Phage-2872] |  |  |  |  | Phage binding ELISA signal, Anti-PSMA Fab (PSMA Fab [3]): 2.39; Phage binding ELISA signal, Anti-PSMA Fab with PSMA antigen (PSMA Fab [4]): 0.113 |
| SEFWCVPAWMCEGF [Phage-2870] |  |  |  |  | Phage binding ELISA signal, Anti-PSMA Fab (PSMA Fab [3]): 2.4; Phage binding ELISA signal, Anti-PSMA Fab with PSMA antigen (PSMA Fab [4]): 0.0842 |
| AGKLCIPNWMCEEQ [Phage-2670] |  |  | 0.0913 | 0.884 |  |
| DWKWCTPAWMCTQT [Phage-2673] |  |  | 0.0698 | 0.877 |  |
| LERVCKPLWMCTGL [Phage-2871] |  |  |  |  | Phage binding ELISA signal, Anti-PSMA Fab (PSMA Fab [3]): 2.39; Phage binding ELISA signal, Anti-PSMA Fab with PSMA antigen (PSMA Fab [4]): 0.134 |
| IIRHCVPMWMCQGF [Phage-2873] |  |  |  |  | Phage binding ELISA signal, Anti-PSMA Fab (PSMA Fab [3]): 2.39; Phage binding ELISA signal, Anti-PSMA Fab with PSMA antigen (PSMA Fab [4]): 0.224 |

| Binder | Phage binding ELISA signal, Anti-PSMA Fab (PSMA Fab [1]) | Phage binding ELISA signal (Anti-PSMA Fab, with competitor) (PSMA Fab [2]) | Phage binding ELISA signal, Anti-PSMA Fab (PSMA Fab [5]) | Phage binding ELISA signal, Anti-PSMA Fab (PSMA Fab [6]) | also measured |
| --- | --- | --- | --- | --- | --- |
| AGHWCIPMWMCQED [Phage-2679] |  |  | 0.0526 | 0.874 |  |
| B7 | 2.43 | 0.0639 |  |  |  |
| B8 | 2.43 | 0.102 |  |  |  |
| MSPLCKPVWMCAGF (cysteine pairing not given here; also: displayed on phage by fusion to pIII) [Phage-2865] |  |  |  |  | Phage binding ELISA signal, Anti-PSMA Fab (PSMA Fab [3]): 2.4; Phage binding ELISA signal, Anti-PSMA Fab with PSMA antigen (PSMA Fab [4]): 0.0828 |
| B9 | 2.43 | 0.197 |  |  |  |
| B10 | 2.44 | 0.12 |  |  |  |
| B11 | 2.46 | 0.0789 |  |  |  |
| B12 | 2.44 | 0.139 |  |  |  |
| B13 | 2.44 | 0.0938 |  |  |  |
| B14 | 2.44 | 0.0783 |  |  |  |
| QEKWCIPEWMCSVR [Phage-2672] |  |  | 0.0823 | 0.879 |  |
| B15 |  |  | 0.079 | 0.876 |  |
| VLPMCSPPWMCIGL [Phage-2867] |  |  |  |  | Phage binding ELISA signal, Anti-PSMA Fab (PSMA Fab [3]): 2.4; Phage binding ELISA signal, Anti-PSMA Fab with PSMA antigen (PSMA Fab [4]): 0.0912 |
| LDMLCIPAWMCEPR [Phage-2674] |  |  | 0.0925 | 0.877 |  |
| EPIRCVPQWMCVGF [Phage-2868] |  |  |  |  | Phage binding ELISA signal, Anti-PSMA Fab (PSMA Fab [3]): 2.4; Phage binding ELISA signal, Anti-PSMA Fab with PSMA antigen (PSMA Fab [4]): 0.0918 |
| B16 |  |  | 0.0918 | 0.874 |  |
| WDNWCTPSWMCSEL [Phage-2671] |  |  | 0.0853 | 0.883 |  |

— patent US20260242478A1 (published 2026)
